For 6 molecules, Kd, koff and kon results are on record in US20230174669A1 (ALIADA THERAPEUTICS, published 2023).

Residue numbers refer to the chain shown, from its start.

The target in experiment [1] is T1, human CD98hc (human, UniProt P08195 105-529).
T1 construct: Soluble protein flowed over captured tripod mAbs in SPR; also called huCD98hc; human CD98 heavy chain
T1 sequence: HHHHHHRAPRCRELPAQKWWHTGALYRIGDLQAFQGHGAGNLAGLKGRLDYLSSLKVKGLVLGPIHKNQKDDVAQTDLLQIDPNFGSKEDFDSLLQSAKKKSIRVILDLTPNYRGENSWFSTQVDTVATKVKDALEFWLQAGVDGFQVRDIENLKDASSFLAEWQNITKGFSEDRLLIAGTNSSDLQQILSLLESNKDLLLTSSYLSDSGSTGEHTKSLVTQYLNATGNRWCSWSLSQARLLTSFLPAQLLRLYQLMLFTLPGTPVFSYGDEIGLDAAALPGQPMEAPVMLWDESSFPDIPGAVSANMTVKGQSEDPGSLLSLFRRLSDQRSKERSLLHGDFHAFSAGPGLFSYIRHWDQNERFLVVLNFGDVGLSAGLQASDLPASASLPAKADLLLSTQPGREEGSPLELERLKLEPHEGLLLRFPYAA
Briefly: SPR ProteOn, anti-Tau tripod mAb captured by anti-Fc, huCD98hc flowed.

Experiment [2] deals with T1, human CD98hc. Briefly: SPR ProteOn, mAb captured by anti-Fc, huCD98hc flowed, 1:1 model.
Procedure: An Fc capture surface was generated by coupling anti-IgG Fc mAb (Jackson ImmunoResearch) to a GLC chip (BioRad) using the amine-coupling chemistry (BioRad).
The chip surface was regenerated with two 18 second pulses of 100 mM H3PO4 (Sigma) at 100 μL/min. The collected data were processed using ProteOn Manager software V3.1.0.6 (BioRad). First, the data was corrected for background using inter-spots. Then, double reference subtraction of the data was performed by using the buffer injection for analyte injections. The kinetic analysis of the data was performed using a Langmuir 1:1 binding model.

B1: BBBB1067 (bispecific antibody)
heavy 1: EVQLVESGGGLVKPGGSLRLSCAASGFTFSSYAMSWVRQAPGKGLEWVASISKGGNTYYPDSVKGRFTISRDNAKNSLYLQMNSLRAEDTAVYYCARGWGDYGWFAYWGQVTLVTVSSASTKGPSVFPLAPSSKSTSGGTAALGCLVKDYFPEPVTVSWNSGALTSGVHTFPAVLQSSGLYSLSSVVTVPSSSLGTQTYICNVNHKPSNTKVDKKVEPKSCDKTHTCPPCPAPEAAGGPSVFLFPPKPKDTLYITREPEVTCVVVSVSHEDPEVKFNWYVDGVEVHNAKTKPREEQYNSTYRVVSVLTVLHQDWLNGKEYKCKVSNKALPAPIEKTISKAKGQPREPQVYVYPPSREEMTKNQVSLTCLVKGFYPSDIAVEWESNGQPENNYKTTPPVLDSDGSFALVSKLTVDKSRWQQGNVFSCSVMHEALHNHYTQKSLSLSPGGGAGGAQVQLVESGGGVVQPGRSLRLSCAASGFTFSSYGMHWVRQAPGKGLEWVAIISYDGSNKHYADSVKGRFTISRDNSKNTLYLQMNSLRAEDTAVYYCARAPSSFYFDYWGQGTLVTVSSGTEGKSSGSGSESKSTDIVMTQSPDSLAVSLGERATINCKSSQSVLFSSNNKNYLAWYQQKPGQPPKLLIYWASTRESGVPDRFSGSGSGTDFTLTISSLQAEDVAVYYCQQYYSTPPTFGQGTKVVIK
light: DIQMTQSPSSLSASVGDRVTITCKASQDINRYLNWFQQKPGKAPKTLIYRANRLLDGVPSRFSGSGSGTDFTLTISSLQPEDFATYYCQQYDEFPLTFGQGTKLEIKRTVAAPSVFIFPPSDEQLKSGTASVVCLLNNFYPREAKVQWKVDNALQSGNSQESVTEQDSKDSTYSLSSTLTLSKADYEKHKVYACEVTHQGLSSPVTKSFNRGEC
heavy 2: EVQLVESGGGLVKPGGSLRLSCAASGFTFSSYAMSWVRQAPGKGLEWVASISKGGNTYYPDSVKGRFTISRDNAKNSLYLQMNSLRAEDTAVYYCARGWGDYGWFAYWGQVTLVTVSSASTKGPSVFPLAPSSKSTSGGTAALGCLVKDYFPEPVTVSWNSGALTSGVHTFPAVLQSSGLYSLSSVVTVPSSSLGTQTYICNVNHKPSNTKVDKKVEPKSCDKTHTCPPCPAPEAAGGPSVFLFPPKPKDTLYITREPEVTCVVVSVSHEDPEVKFNWYVDGVEVHNAKTKPREEQYNSTYRVVSVLTVLHQDWLNGKEYKCKVSNKALPAPIEKTISKAKGQPREPQVYVLPPSREEMTKNQVSLLCLVKGFYPSDIAVEWESNGQPENNYLTWPPVLDSDGSFFLYSKLTVDKSRWQQGNVFSCSVMHEALHNHYTQKSLSLSPG
notes: also called tripod mAb Anti-Tau IgG1 AAS YTE with C98hc4
One may read the Kd as the free concentration of one partner at which half of the binding sites on the other are occupied at equilibrium, for simple one-to-one binding. A low value points to tighter binding. By koff is commonly meant the first-order rate constant of dissociation. The term kon denotes the second-order rate constant of association. Read a low kon as slow association. In the experiment with human CD98hc [1], B1 returned a Kd of 3.15 nM, an off-rate (koff) of 0.00138 s⁻¹ and a kon of 439000 M⁻¹ s⁻¹.

B2: BBBB1070 (bispecific antibody, human IgG1, kappa, L234A L235A)
heavy 1: EVQLVESGGGLVKPGGSLRLSCAASGFTFSSYAMSWVRQAPGKGLEWVASISKGGNTYYPDSVKGRFTISRDNAKNSLYLQMNSLRAEDTAVYYCARGWGDYGWFAYWGQVTLVTVSSASTKGPSVFPLAPSSKSTSGGTAALGCLVKDYFPEPVTVSWNSGALTSGVHTFPAVLQSSGLYSLSSVVTVPSSSLGTQTYICNVNHKPSNTKVDKKVEPKSCDKTHTCPPCPAPEAAGGPSVFLFPPKPKDTLYITREPEVTCVVVSVSHEDPEVKFNWYVDGVEVHNAKTKPREEQYNSTYRVVSVLTVLHQDWLNGKEYKCKVSNKALPAPIEKTISKAKGQPREPQVYVYPPSREEMTKNQVSLTCLVKGFYPSDIAVEWESNGQPENNYKTTPPVLDSDGSFALVSKLTVDKSRWQQGNVFSCSVMHEALHNHYTQKSLSLSPGGGAGGAQVQLQESGPGLVKPSETLSLTCTVSGGSISSSYWSWIRQPPGKGLEWIGYIYNSGSTNYNPSLKSRVTISVDTSKNQFSLKLSSVTAADTAVYYCARETYYFDYWGQGTLVTVSSGTEGKSSGSGSESKSTDIVMTQSQKFMSTSVGDRVSVTCKASQNVGINVAWYQKKPGQPPKALIYSAAYRYSGVPDRFTGSGSGTDFTLTISNVQSEDLAEYFCQQYNSYPLTFGSGTKLEIK
light: B1 light
heavy 2: B1 heavy 2
notes: also called tripod mAb Anti-Tau IgG1 AAS YTE with C98hc5
In the experiment with human CD98hc [1], B2 yielded a Kd of 118 nM, a koff of 0.00648 s⁻¹ and an association rate constant (kon) of 55700 M⁻¹ s⁻¹.

B3: BBBB1061 (bispecific antibody, human IgG1, kappa, L234A L235A)
heavy 1: EVQLVESGGGLVKPGGSLRLSCAASGFTFSSYAMSWVRQAPGKGLEWVASISKGGNTYYPDSVKGRFTISRDNAKNSLYLQMNSLRAEDTAVYYCARGWGDYGWFAYWGQVTLVTVSSASTKGPSVFPLAPSSKSTSGGTAALGCLVKDYFPEPVTVSWNSGALTSGVHTFPAVLQSSGLYSLSSVVTVPSSSLGTQTYICNVNHKPSNTKVDKKVEPKSCDKTHTCPPCPAPEAAGGPSVFLFPPKPKDTLYITREPEVTCVVVSVSHEDPEVKFNWYVDGVEVHNAKTKPREEQYNSTYRVVSVLTVLHQDWLNGKEYKCKVSNKALPAPIEKTISKAKGQPREPQVYVYPPSREEMTKNQVSLTCLVKGFYPSDIAVEWESNGQPENNYKTTPPVLDSDGSFALVSKLTVDKSRWQQGNVFSCSVMHEALHNHYTQKSLSLSPGGGAGGAQVQLVESGGGLVQAGGSLRLSCAASGRAFSSNGMGWFRQAPGKEREFVATISCSGTSTYYADSVKGRFTISRDNAKNTVYLQMNSLKPEDTAVYFCAADTRHCMGYTKDEGYAYWGQGTQVTVSS
light: B1 light
heavy 2: B1 heavy 2
notes: also called tripod mAb Anti-Tau IgG1 AAS YTE with C98hc2
In the experiment with human CD98hc [1], B3 gave a Kd of 1.46 nM, a koff of 0.00135 s⁻¹ and a kon of 935000 M⁻¹ s⁻¹.

B4: BBBB1065 (bispecific antibody)
heavy 1: B1 heavy 1 with A235L, A236L, Y253M, T255S, E257T, S266D
light: B1 light
heavy 2: B1 heavy 2 with A235L, A236L, Y253M, T255S, E257T, S266D
notes: also called tripod mAb Anti-Tau IgG1 with C98hc4
In the experiment with human CD98hc [1], B4 had a dissociation constant Kd of 2.96 nM, an off-rate (koff) of 0.00139 s⁻¹ and a kon of 470000 M⁻¹ s⁻¹.

B5: BBBB1202 (bispecific antibody)
heavy 1: B1 heavy 1 with S555H
light: B1 light
heavy 2: B1 heavy 2
For the molecule B5, in the experiment with human CD98hc [2], the Kd worked out at 52.9 nM, the off-rate (koff) was 0.00882 s⁻¹ and the kon turned out to be 167000 M⁻¹ s⁻¹.

B6: BBBB1201 (bispecific antibody)
heavy 1: B1 heavy 1 with S555A
light: B1 light
heavy 2: B1 heavy 2
In the experiment with human CD98hc [2], B6 yielded a Kd of 16.9 nM, a koff of 0.006 s⁻¹ and a kon of 357000 M⁻¹ s⁻¹.
